Laboratory results published in patent US20030165887A1 (BURNHAM INSTITUTE, published 2003).

Tests used:
Assay in all cases: co-immunoprecipitation, transfected HEK293T cells, SDS-PAGE/immunoblot
Apaf1 = molecular target: T1, Apaf1 (human, UniProt O14727 1-1248)
T1 sequence: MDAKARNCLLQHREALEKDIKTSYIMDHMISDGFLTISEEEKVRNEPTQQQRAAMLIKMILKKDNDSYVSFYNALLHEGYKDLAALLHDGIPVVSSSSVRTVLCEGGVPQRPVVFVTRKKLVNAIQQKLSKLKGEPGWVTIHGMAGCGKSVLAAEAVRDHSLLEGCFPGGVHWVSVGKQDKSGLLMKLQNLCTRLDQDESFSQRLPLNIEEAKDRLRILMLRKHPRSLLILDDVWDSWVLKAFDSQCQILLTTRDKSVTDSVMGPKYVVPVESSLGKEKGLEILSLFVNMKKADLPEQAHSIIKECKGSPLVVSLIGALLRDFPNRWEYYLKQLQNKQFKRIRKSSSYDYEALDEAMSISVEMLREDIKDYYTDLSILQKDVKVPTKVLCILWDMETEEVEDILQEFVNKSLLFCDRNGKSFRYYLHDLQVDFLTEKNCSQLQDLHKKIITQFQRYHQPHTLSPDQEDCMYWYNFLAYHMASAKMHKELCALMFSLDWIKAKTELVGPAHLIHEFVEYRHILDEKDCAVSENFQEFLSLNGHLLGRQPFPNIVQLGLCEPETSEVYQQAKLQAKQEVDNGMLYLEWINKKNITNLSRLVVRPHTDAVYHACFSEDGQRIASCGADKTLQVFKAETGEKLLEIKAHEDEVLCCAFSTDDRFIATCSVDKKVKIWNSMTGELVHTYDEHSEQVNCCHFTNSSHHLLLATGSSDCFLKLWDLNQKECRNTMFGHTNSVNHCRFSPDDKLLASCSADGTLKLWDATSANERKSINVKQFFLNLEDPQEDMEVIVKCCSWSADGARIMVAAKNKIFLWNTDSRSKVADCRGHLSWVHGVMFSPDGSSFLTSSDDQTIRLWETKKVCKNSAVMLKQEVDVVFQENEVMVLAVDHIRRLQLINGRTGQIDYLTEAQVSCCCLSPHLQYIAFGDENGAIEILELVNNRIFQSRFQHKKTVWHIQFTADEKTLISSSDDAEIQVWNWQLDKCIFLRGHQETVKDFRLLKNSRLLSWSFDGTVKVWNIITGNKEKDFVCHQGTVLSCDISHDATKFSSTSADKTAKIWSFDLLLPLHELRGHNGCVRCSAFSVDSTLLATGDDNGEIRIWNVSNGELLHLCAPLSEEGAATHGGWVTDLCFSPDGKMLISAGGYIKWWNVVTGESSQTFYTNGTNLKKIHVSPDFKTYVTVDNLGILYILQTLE
Procedure: (§1) The TUCAN polypeptides were expressed by transient transfection in HEK293T cells together with epitope-tagged pro-caspase-9 or other proteins. […] Cell lysates were prepared from transfected cells and immunoprecipitations were performed using anti-Flag or anti-Myc antibodies, followed by SDS-PAGE/immunoblot analysis.

CARD9 = molecular target: T2, CARD9 (UniProt Q9H257 1-536, limits assumed)
T2 sequence (looked up): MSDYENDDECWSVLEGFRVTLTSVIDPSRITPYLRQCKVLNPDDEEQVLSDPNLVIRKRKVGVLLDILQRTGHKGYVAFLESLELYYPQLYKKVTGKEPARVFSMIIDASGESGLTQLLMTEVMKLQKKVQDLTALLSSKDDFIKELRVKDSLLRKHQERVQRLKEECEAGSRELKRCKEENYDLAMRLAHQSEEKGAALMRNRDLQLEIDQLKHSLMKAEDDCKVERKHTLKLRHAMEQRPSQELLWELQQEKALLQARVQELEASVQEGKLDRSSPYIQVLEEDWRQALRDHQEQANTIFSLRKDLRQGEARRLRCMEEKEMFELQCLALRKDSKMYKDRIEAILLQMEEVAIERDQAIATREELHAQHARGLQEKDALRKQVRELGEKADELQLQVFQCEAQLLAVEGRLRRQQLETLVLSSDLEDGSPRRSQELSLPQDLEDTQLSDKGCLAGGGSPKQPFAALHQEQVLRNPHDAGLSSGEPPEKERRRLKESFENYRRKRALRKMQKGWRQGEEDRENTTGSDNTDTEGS
Procedure: as §1

cIAP1 = cIAP1 (UniProt Q13490 1-618, limits assumed)
Sequence of cIAP1 (Q13490 whole entry): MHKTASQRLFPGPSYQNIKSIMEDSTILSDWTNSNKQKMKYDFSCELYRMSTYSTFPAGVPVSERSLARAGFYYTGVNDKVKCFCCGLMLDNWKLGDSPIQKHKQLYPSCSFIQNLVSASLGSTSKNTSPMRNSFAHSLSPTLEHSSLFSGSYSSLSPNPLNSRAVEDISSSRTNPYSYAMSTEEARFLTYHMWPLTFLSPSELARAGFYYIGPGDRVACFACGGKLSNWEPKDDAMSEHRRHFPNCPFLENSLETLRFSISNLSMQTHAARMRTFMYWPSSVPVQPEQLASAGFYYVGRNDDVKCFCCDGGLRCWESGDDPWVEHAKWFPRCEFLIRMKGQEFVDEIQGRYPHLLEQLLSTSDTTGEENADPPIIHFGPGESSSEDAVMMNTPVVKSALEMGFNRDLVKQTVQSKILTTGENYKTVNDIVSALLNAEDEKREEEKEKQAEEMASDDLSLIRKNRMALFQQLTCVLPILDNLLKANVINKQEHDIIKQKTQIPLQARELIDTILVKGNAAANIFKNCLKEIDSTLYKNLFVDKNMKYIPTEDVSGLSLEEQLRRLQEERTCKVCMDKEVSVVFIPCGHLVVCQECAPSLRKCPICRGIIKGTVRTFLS
Procedure: as §1

binding result (Apaf1): no binding
binding result (CARD9): no binding
binding result (cIAP1): no binding
B1: TUCAN (Tumor Up-regulated CARD-containing Antagonist of Caspase Nine), full-length (other)
chain: MMRQRQSHYCSVLFLSVNYLGGTFPGDICSEENQIVSSYASKVCFEIEEDYKNRQFLGPEGNVDVELIDKSTNRYSVWFPTAGWYLWSATGLGFLVRDEVTVTIAFGSWSQHLALDLQHHEQWLVGGPLFDVTAEPEEAVAEIHLPHFISLQGEVDVSWFLVAHFKNEGMVLEHPARVEPFYAVLESPSFSLMGILLRIASGTRLSIPITSNTLIYYHPHPEDIKFHLYLVPSDALLTKAIDDEEDRFHGVRLQTSPPMEPLNFGSSYIVSNSANLKVMPKELKLSYRSPGEIQHFSKFYAGQMKEPIQLEITEKRHGTLVWDTEVKPVDLQLVAASAPPPFSGAAFVKENHRQLQARMGDLKGVLDDLQDNEVLTENEKELVEQEKTRQSKNEALLSMVEKKGDLALDVLFRSISERDPYLVSYLRQQNL
notes: Full-length TUCAN expressed by transient transfection in HEK293T cells; also called full-length TUCAN; CARD-X
